According to US4287300A, “Charge effects in enzyme immunoassays” (priority 1979, dated 1981):

Test system: β-galactosidase
Experiment: β-galactosidase activity assay with ONPG substrate
Assay type: biochemical
Settings: after dithioerythritol treatment and Biogel A5M chromatography
Experimental: C. To 1.8 ml of a 35.3 mg/ml solution of the antiHIgG was added 60 μl (10 mg/ml DMF) of m-maleimidobenzoic acid NHS ester and the mixture allowed to stand at room temperature for 30 min, followed by the addition of 0.18 ml of 1 M sodium acetate, pH 5. The reaction mixture was then dialyzed 2×500 ml (degassed) 20 mM sodium acetate, pH 5, 0.15 M NaCl for 1 hr at room temperature. To a solution of 5 ml of β-galactosidase (1.47 mg/ml) was added 0.2 ml of 0.5 M phosphate, pH 7, followed by 2 ml of the above reaction product at a concentration of 31.1 mg/ml and the mixture incubated at room temperature for 4 hrs. The reaction was terminated by the addition of 0.2 ml of 10 mM cysteine-HCl and incubating for 0.5 hr to yield a final volume of 7.4 ml. […] Fractions 24 to 33 were collected to provide a volume of 50 ml with an optical density at 280 nm of 0.540 and a molar ratio of antibody to enzyme of about 5:1. […] Assaying for the enzyme employed a 10 μl fraction dissolved in 0.5 ml PBS, N3, Mg, RSA combined with 0.1 ml 20 mM ONPG in 0.4 ml buffer and measuring the rate at 37° at 420 nm for the interval between 10 to 20 secs after addition of the substrate.
D. The above procedure was repeated as follows. […] The assays were performed at 37° C., reading at 420 nm employing an assay solution of 10 μl of the conjugate, 0.9 ml PBS, N3, Mg, RSA and 0.1 ml of substrate (20 mM ONPG).

## β-galactosidase: β-galactosidase (Boehringer 150797), treated with dithioerythritol and chromatographed on Biogel A5M
  enzyme activity: 477 u/mg of protein
